# Patent publication US20210261650A1 (published 2021)
# B1: SARS-CoV-2 S310 mAb (antibody, V domains shown)
# VH: QVQLVQSGAELKKPGSSVKVSCKASGGTFNSYSFNWVRQAPGQGLEWLGGIIPVLGTSNYAQKFQGRVAVTADEFTTTAYMELSSLRSEDTAVYYCATRTYDSSGYRPYYYGLDVWGQGTPVTVSS
# VL: QSALTQPASVSGSPGQSITISCTGTSSDVGSYNLVSWYQQRPGKAPELMIYEVTKRPSGLSNRFSGSKSGNTASLTISGLQAEDEADYYCCSYAGSDTVIFGGGTKVTVL
# Biological target: SARS-CoV-2 Spike (S) protein on pseudotyped virus or live SARS-CoV-2 (SARS-CoV-2 (BetaCoV/Wuhan-Hu-1/2019 for …, UniProt P0DTC2 14-1273))
# Experiment: cell-based or functional assay
binder,measurement,value
B1,"Percent neutralization of infection, dilution 2",-4%
same,"Percent neutralization of infection, dilution 6",-15%
same,"Percent neutralization of infection, dilution 18",-15%
same,"Percent neutralization of infection, dilution 54",-6%
